B1: ZNF649 (parent)
chain: EHERAHRGEKPHGCSLCGKAFYKR

Variants of: B1
Experiment: protein stability index of a GFP-peptide fusion (GPS, HEK-293T) (PSI 1-6); higher = more stable
Conditions: c terminus: a fixed tail appended
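Further: lentivirally expressed fusions sorted by FACS into six bins by GFP to DsRed ratio, PSI derived from sequencing read proportions per bin multiplied by bin number.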

Protein stability index of substitutions, site by site:
G8: H 2.83, E 2.27, S 1.99, P 2.78, M 1.8
K19: G 1.41, P 1.42, A 1.61, N 2.43, D 2.13
R7: P 2.63, I 1.69, M 2.72, S 2.23, Y 1.82, N 3.32
E3: V 3.49, C 2.74, L 1.92, R 1.96
P11: M 2.31, E 3.19, N 2.33, G 1.55, C 2.51, Y 2.01, A 2.08, V 1.79
C14: P 3.12, D 4.54, L 3.94, K 4.59, Y 3.56, V 4.78, F 2.69, S 4.83
G18: I 1.67, Y 1.85, H 2.15, L 2.42, Q 1.89, S 2.5, K 2.03, W 1.54, R 3.06
K10: M 2.28, Y 1.7, E 2.87, W 1.67, V 1.76, N 1.19
L16: I 2.2, K 2.79, G 3.96, S 1.97, P 3.48, A 3.17, D 3.82, F 1.83, E 3.8
H2: M 2.06, C 2.01, I 2, Q 3.21, Y 1.65
G13: I 3.07, P 1.88, C 1.9, M 3.08, F 2.72, S 1.95
C17: P 3.85, E 2.58, Q 4.46, F 3.48, D 4.19, H 3.67, M 3.87, W 3, T 4.48, V 3.18, G 4.07, Y 2.48
